Assay results as given in publication PMC3948114.

Columns and labels:
[1] = molecular target: HLA-B*27:05-KF9 N8H tetramer; assay: tetramer staining of transfected HEK293 cells; conditions: chain shown with the change; 0.2 μg tetramer; parent: est. 100; read off a plot
HLA-B*27:05-KF9 tetramer = assay: tetramer staining of transfected HEK293 cells; conditions: chain shown with the change; 0.2 μg tetramer; parent: est. 100; read off a plot

Binder	percent of parent [1]	percent of parent (HLA-B*27:05-KF9 tetramer)
FLAG-tagged 3DL1*001, P43629 M165A (protein) HMGGQDKPFLSAWPSAVVPRGGHVTLRCHYRHRFNNFMLYKEDRIHIPIFHGRIFQESFNMSPVTTAHAGNYTCRGSHPHSPTGWSAPSNPVVIMVTGNHRKPSLLAHPGPLVKSGERVILQCWSDIMFEHFFLHKEGISKDPSRLVGQIHDGVSKANFSIGPMALALAGTYRCYGSVTHTPYQLSAPSDPLDIVVTGPYEKPSLSAQPGPKVQAGESVTLSCSSRSSYDMYHLSREGGAHERRLPAVRKVNRTFQADFPLGPATHGGTYRCFGSFRHSPYEWSDPSDPLLVSVTGNPSSSWPSPTEPSSKSGNPRHLHILIGTSVVIILFILLLFFLLHLWCSNKKNAAVMDQEPAGNRTANSEDSDEQDPEEVTYAQLDHCVFTQRKITRPSQRPKTPPTDTILYTELPNAKPRSKVVSCP	61 % of ·001	60 % of ·001
FLAG-tagged 3DL1*001, P43629 P199A (protein) HMGGQDKPFLSAWPSAVVPRGGHVTLRCHYRHRFNNFMLYKEDRIHIPIFHGRIFQESFNMSPVTTAHAGNYTCRGSHPHSPTGWSAPSNPVVIMVTGNHRKPSLLAHPGPLVKSGERVILQCWSDIMFEHFFLHKEGISKDPSRLVGQIHDGVSKANFSIGPMMLALAGTYRCYGSVTHTPYQLSAPSDPLDIVVTGAYEKPSLSAQPGPKVQAGESVTLSCSSRSSYDMYHLSREGGAHERRLPAVRKVNRTFQADFPLGPATHGGTYRCFGSFRHSPYEWSDPSDPLLVSVTGNPSSSWPSPTEPSSKSGNPRHLHILIGTSVVIILFILLLFFLLHLWCSNKKNAAVMDQEPAGNRTANSEDSDEQDPEEVTYAQLDHCVFTQRKITRPSQRPKTPPTDTILYTELPNAKPRSKVVSCP	21 % of ·001	21 % of ·001
FLAG-tagged 3DL1*001, P43629 L166A (protein) HMGGQDKPFLSAWPSAVVPRGGHVTLRCHYRHRFNNFMLYKEDRIHIPIFHGRIFQESFNMSPVTTAHAGNYTCRGSHPHSPTGWSAPSNPVVIMVTGNHRKPSLLAHPGPLVKSGERVILQCWSDIMFEHFFLHKEGISKDPSRLVGQIHDGVSKANFSIGPMMAALAGTYRCYGSVTHTPYQLSAPSDPLDIVVTGPYEKPSLSAQPGPKVQAGESVTLSCSSRSSYDMYHLSREGGAHERRLPAVRKVNRTFQADFPLGPATHGGTYRCFGSFRHSPYEWSDPSDPLLVSVTGNPSSSWPSPTEPSSKSGNPRHLHILIGTSVVIILFILLLFFLLHLWCSNKKNAAVMDQEPAGNRTANSEDSDEQDPEEVTYAQLDHCVFTQRKITRPSQRPKTPPTDTILYTELPNAKPRSKVVSCP	45 % of ·001	56 % of ·001
FLAG-tagged 3DL1*001, P43629 E282Q (protein) HMGGQDKPFLSAWPSAVVPRGGHVTLRCHYRHRFNNFMLYKEDRIHIPIFHGRIFQESFNMSPVTTAHAGNYTCRGSHPHSPTGWSAPSNPVVIMVTGNHRKPSLLAHPGPLVKSGERVILQCWSDIMFEHFFLHKEGISKDPSRLVGQIHDGVSKANFSIGPMMLALAGTYRCYGSVTHTPYQLSAPSDPLDIVVTGPYEKPSLSAQPGPKVQAGESVTLSCSSRSSYDMYHLSREGGAHERRLPAVRKVNRTFQADFPLGPATHGGTYRCFGSFRHSPYQWSDPSDPLLVSVTGNPSSSWPSPTEPSSKSGNPRHLHILIGTSVVIILFILLLFFLLHLWCSNKKNAAVMDQEPAGNRTANSEDSDEQDPEEVTYAQLDHCVFTQRKITRPSQRPKTPPTDTILYTELPNAKPRSKVVSCP	89 % of ·001	99 % of ·001
FLAG-tagged 3DL1*001, P43629 Y200A (protein) HMGGQDKPFLSAWPSAVVPRGGHVTLRCHYRHRFNNFMLYKEDRIHIPIFHGRIFQESFNMSPVTTAHAGNYTCRGSHPHSPTGWSAPSNPVVIMVTGNHRKPSLLAHPGPLVKSGERVILQCWSDIMFEHFFLHKEGISKDPSRLVGQIHDGVSKANFSIGPMMLALAGTYRCYGSVTHTPYQLSAPSDPLDIVVTGPAEKPSLSAQPGPKVQAGESVTLSCSSRSSYDMYHLSREGGAHERRLPAVRKVNRTFQADFPLGPATHGGTYRCFGSFRHSPYEWSDPSDPLLVSVTGNPSSSWPSPTEPSSKSGNPRHLHILIGTSVVIILFILLLFFLLHLWCSNKKNAAVMDQEPAGNRTANSEDSDEQDPEEVTYAQLDHCVFTQRKITRPSQRPKTPPTDTILYTELPNAKPRSKVVSCP	15 % of ·001	16 % of ·001
FLAG-tagged 3DL1*001, P43629 D230A (protein) HMGGQDKPFLSAWPSAVVPRGGHVTLRCHYRHRFNNFMLYKEDRIHIPIFHGRIFQESFNMSPVTTAHAGNYTCRGSHPHSPTGWSAPSNPVVIMVTGNHRKPSLLAHPGPLVKSGERVILQCWSDIMFEHFFLHKEGISKDPSRLVGQIHDGVSKANFSIGPMMLALAGTYRCYGSVTHTPYQLSAPSDPLDIVVTGPYEKPSLSAQPGPKVQAGESVTLSCSSRSSYAMYHLSREGGAHERRLPAVRKVNRTFQADFPLGPATHGGTYRCFGSFRHSPYEWSDPSDPLLVSVTGNPSSSWPSPTEPSSKSGNPRHLHILIGTSVVIILFILLLFFLLHLWCSNKKNAAVMDQEPAGNRTANSEDSDEQDPEEVTYAQLDHCVFTQRKITRPSQRPKTPPTDTILYTELPNAKPRSKVVSCP	66 % of ·001	70 % of ·001
FLAG-tagged 3DL1*001, P43629 L166V (protein) HMGGQDKPFLSAWPSAVVPRGGHVTLRCHYRHRFNNFMLYKEDRIHIPIFHGRIFQESFNMSPVTTAHAGNYTCRGSHPHSPTGWSAPSNPVVIMVTGNHRKPSLLAHPGPLVKSGERVILQCWSDIMFEHFFLHKEGISKDPSRLVGQIHDGVSKANFSIGPMMVALAGTYRCYGSVTHTPYQLSAPSDPLDIVVTGPYEKPSLSAQPGPKVQAGESVTLSCSSRSSYDMYHLSREGGAHERRLPAVRKVNRTFQADFPLGPATHGGTYRCFGSFRHSPYEWSDPSDPLLVSVTGNPSSSWPSPTEPSSKSGNPRHLHILIGTSVVIILFILLLFFLLHLWCSNKKNAAVMDQEPAGNRTANSEDSDEQDPEEVTYAQLDHCVFTQRKITRPSQRPKTPPTDTILYTELPNAKPRSKVVSCP	58 % of ·001	36 % of ·001
FLAG-tagged 3DL1*001, P43629 E282A (protein) HMGGQDKPFLSAWPSAVVPRGGHVTLRCHYRHRFNNFMLYKEDRIHIPIFHGRIFQESFNMSPVTTAHAGNYTCRGSHPHSPTGWSAPSNPVVIMVTGNHRKPSLLAHPGPLVKSGERVILQCWSDIMFEHFFLHKEGISKDPSRLVGQIHDGVSKANFSIGPMMLALAGTYRCYGSVTHTPYQLSAPSDPLDIVVTGPYEKPSLSAQPGPKVQAGESVTLSCSSRSSYDMYHLSREGGAHERRLPAVRKVNRTFQADFPLGPATHGGTYRCFGSFRHSPYAWSDPSDPLLVSVTGNPSSSWPSPTEPSSKSGNPRHLHILIGTSVVIILFILLLFFLLHLWCSNKKNAAVMDQEPAGNRTANSEDSDEQDPEEVTYAQLDHCVFTQRKITRPSQRPKTPPTDTILYTELPNAKPRSKVVSCP	48 % of ·001	51 % of ·001
FLAG-tagged 3DL1*001, P43629 Y200F (protein) HMGGQDKPFLSAWPSAVVPRGGHVTLRCHYRHRFNNFMLYKEDRIHIPIFHGRIFQESFNMSPVTTAHAGNYTCRGSHPHSPTGWSAPSNPVVIMVTGNHRKPSLLAHPGPLVKSGERVILQCWSDIMFEHFFLHKEGISKDPSRLVGQIHDGVSKANFSIGPMMLALAGTYRCYGSVTHTPYQLSAPSDPLDIVVTGPFEKPSLSAQPGPKVQAGESVTLSCSSRSSYDMYHLSREGGAHERRLPAVRKVNRTFQADFPLGPATHGGTYRCFGSFRHSPYEWSDPSDPLLVSVTGNPSSSWPSPTEPSSKSGNPRHLHILIGTSVVIILFILLLFFLLHLWCSNKKNAAVMDQEPAGNRTANSEDSDEQDPEEVTYAQLDHCVFTQRKITRPSQRPKTPPTDTILYTELPNAKPRSKVVSCP	81 % of ·001	87 % of ·001
FLAG-tagged 3DL1*001, P43629 A167G (protein) HMGGQDKPFLSAWPSAVVPRGGHVTLRCHYRHRFNNFMLYKEDRIHIPIFHGRIFQESFNMSPVTTAHAGNYTCRGSHPHSPTGWSAPSNPVVIMVTGNHRKPSLLAHPGPLVKSGERVILQCWSDIMFEHFFLHKEGISKDPSRLVGQIHDGVSKANFSIGPMMLGLAGTYRCYGSVTHTPYQLSAPSDPLDIVVTGPYEKPSLSAQPGPKVQAGESVTLSCSSRSSYDMYHLSREGGAHERRLPAVRKVNRTFQADFPLGPATHGGTYRCFGSFRHSPYEWSDPSDPLLVSVTGNPSSSWPSPTEPSSKSGNPRHLHILIGTSVVIILFILLLFFLLHLWCSNKKNAAVMDQEPAGNRTANSEDSDEQDPEEVTYAQLDHCVFTQRKITRPSQRPKTPPTDTILYTELPNAKPRSKVVSCP	130 % of ·001	65 % of ·001
